Measured values taken from patent US20230203156A1 (WILLIAM ROBERT ARATHOON LIVING TRUST DATED AUGUST 29 2016, published 2023).
Residue numbers refer to the chain shown, from its start.

B1: KPA08 (antibody, V domains shown)
VH: EVKVVESGGVLVRPGGSLKLSCAASGFTFSRYTMSWVRQTPEKRLEWVATISSGGGNTYYPDSVKGRFTVSRDNAMSSLYLQMSSLRSEDTALYYCARYGAGDAWFAYWGQGTLVTVSS
VL: DVLMTQTPVSLSVSLGDQASISCRSSQSIVHSTGNTYLEWYLQKPGQSPKLLIYKISNRFSGVPDRFSGSGSGTDFTLKISRVEAEDLGVYYCFQASHFPRTFGGGTKLEIK
B2: B1.178 (antibody, human IgG1, V domains shown)
VH: EAQLVESGGALVKPGGSLKLSCSASGFTFSNYAMSWVRQTPEKRLEWVATISSGGTNTYYPGSVKGRFTIARDNAKNTLYLLMSSLRSEDTALYFCARYSNLAWFASWGQGTLVTVSA
VL: DVVMTQTPLSLPVSLGDQASISCRSSQSIVHSNGNTYLEWYLQKPGQSPKFLISKVSNRFSGVPDRFSGSGSGTDFTLKISRVEAEDLGIYYCFQGSHVPYTFGGGTKLEIK
B3: B1.188 (antibody, human IgG1, V domains shown)
VH: EVMLVESGGALVKPGGSLKLSCAASGFTFSNYAMSWVRQTPEKRLEWVATISSGGSYTYYPDSVKGRFTISRDNARNTLYLQMSSLRSEDTAMYYCARGYGNFAWFAYWGQGTLVTVSA
VL: B2 VL with V2I, V3Q, T7S, N33T, F51L, S54Y, I90V, Y101F, G105S
B4: B1.198 (antibody, human IgG1, V domains shown)
VH: EVQLVESGGALVKPGGSLKLSCAASGFTFSNYAMSWVRQTPEKRLEWVATISSGGSYTYYPDSVKGRFTISRDNAKNTLYLQMSSLRSEDTALYYCAKYSNYGRFAYWGQGTLVTVSA
VL: B2 VL with H31D, F51L, S54Y, S61F, I90V
B5: B1.201 (antibody, human IgG1, V domains shown)
VH: B4 VH with V12M, L20F, S30T, Y57N, P61S, N77T, S85G, Y99F, Y102F, Y107S
VL: B2 VL with V3L, S25F, N33S, K50R, F51L, S54Y, S61F, F67I, K79R, I90V
B6: B1.207 (antibody, human IgG1, V domains shown)
VH: B4 VH with E1G, N77T, S85G, Y107S, A118T
VL: B2 VL with V3L, N33S, K50R, F51L, S54Y, S61F, F67I, K79R, I90V
B7: B1.217 (antibody, human IgG1, V domains shown)
VH: B4 VH with A97T, A118T
VL: B1 VL with V9L, S12P, I56V, A96G, F99I, R101Y
B8: B1.219 (antibody, human IgG1, V domains shown)
VH: B4 VH with G54V, N77T, S85G, Y107S, A118T
VL: DVLMTQTPLSLPASLGDQASISCRSSQSIVHSSGNTYLEWYLQKPGQSPRLLIYKVSNRFFGVPDRISGSGSGTDFTLRISRVEAEDLGVYYCFQGSHVPYTFGGGTKLEIE
B9: B1.223 (antibody, human IgG1, V domains shown)
VH: B4 VH with Q3K, N77T, S85G, Y99F, Y107S, A118S
VL: B8 VL with V2I, L3Q, T5I, T7S, A13V, I111L, E112K
B10: B1.225 (antibody, human IgG1, V domains shown)
VH: EVQLVESGGALVKPGGSLKLSCAASGFTFSNYGMSWVRQTPEKRLEWVATISSGGSYTYYPDTVKGRFTISRDNAKNTLHLQMSSLRSEDTALYYCARRGTNDAWFGYWGQGTLVTVSA
VL: DVVMTQTPLSLPVSLGDQASISCRFSQSIVHSNGNTYLEWYLQKPGQSPKLLIYKVSNRFFGVPDRFSGSGSGTDFTLKISRVEAEDLGVYFCFQGSHVPQYTFGGGTKLEIK
B11: B1.27 (antibody, human IgG1, V domains shown)
VH: EVKLVESGGGLVKPGGSLKLSCAASGFTFSSYTMSWVRQTPEKRLEWVATVSSGGGNTYYPDSVKGRFTISRDNAKNNLYLQMSSPRSEDTALYYCARYGNYGWFTYWGQGTLVTVSS
VL: B1 VL with L3V, V9L, S12P, S28N, E39D, I56V, Y92F, A96G, F99I
B12: B1.226 (antibody, human IgG1, V domains shown)
VH: B4 VH with K43T, K98R, Y102L, G103A, R104W
VL: B2 VL with E39D, L52M, S54Y, I90V
B13: B1.89 (antibody, human IgG1, V domains shown)
VH: KVQLVESGGALVKPGGSLKLSCAASGFTFSNYAMSWVRQTPEKRLEWVATISSSGSYTYFPDSVKGRFTISRDNAKNTLYLQMSSLRSEDTALYYCARYGYDEAWFASWGQGTLVTVSA
VL: B1 VL with V9L, S12P, S28T, T33N, I56V, N58K, A96G
B14: B1.263 (antibody, human IgG1, V domains shown)
VH: EVKLVESGGGLVKPGGSLKLSCAASGFTFSNYGMSWVRQTPEKRLEWVAAISSNGAYTYFPDTVKGRFTISRDNAKNTLYLQMNSLRSEDTALYYCTRRGWDTWFAYWGQGTLVTVSS
VL: B2 VL with S28N, N33T, F51L, S54Y, I90V, Y101W
B15: B1.264 (antibody, human IgG1, V domains shown)
VH: B4 VH with Q3K, Y57N, K65M, K98R, R104W, A118S
VL: B2 VL with F51L, S54Y, I90V, H98L, Y101R
B16: KB1.269A (antibody, human IgG1, V domains shown)
VH: B3 VH with M3Q, L11S, P61L, R76K, M93L, G99Y, G101V, N102Y, F103D
VL: B2 VL with N33T, F51L, S54Y, I90V, Y91F, Y101R
B17: B1.276 (antibody, human IgG1, V domains shown)
VH: EVKLVESGGALVKPGGSLKLSCAASGFTFRNYAMSWVRQTPEKRLEWVATISSDGSYTYHPDSVKGRFTISRDNARNTLYLQMSSLRSEDTAMYSCTRQGNWGRTWFTYWGQGTLVTVSS
VL: QIVLTQSPAIMSASPGEKVTMTCRASSSVSSSYLHWYQQKSGASPKLWIYSTSSLASGVPARFSGSGSGTSYSLTISSVEAEDAATYYCQQYSGYPLTFGAGTKLELK
B18: B1.278 (antibody, human IgG1, V domains shown)
VH: QVQLQQSGPELVKPGASVKISCKASGYSFTGYFMNWVMQSHGKSLEWIGRINPYNGDTFYNQKFKGKATLTVDKSSGTAHMELRSLASEDSAVYYCARCYYYGSSSYGMDYWGQGTSVTVSS
VL: QIVLTQSPASLAVSLGQRATISCRASESVHNYGVSFMNWFQQRPGQPPKLLIHAASHQGSGVPARFTGSGSGTDFSLNIHPMEEDDIAMYFCQQSKEVPLTFGAGTKLKLK
B19: KB1.273A (antibody, human IgG1, V domains shown)
VH: QVQLQQSGPELVKTGASVKISCKASGYSFSNYYIHWVKQSHGKSLEWIGFISCYNGATFYNQKFKGKATFTVDTSSSTAYMKFNSLTFEDSAVYYCARLPIQFGNFYPMDYWGQGTSVTVSS
VL: QIVLTQSPAIMSASLGERVTMTCTASSSVSSSYLHWYQQKPGSSPKLWIYSTSNLASGVPARFSGSGSGTSYSLTISSMEAEDAATYYCHQYHRSPPTFGAGTKLELK

Target: human MDR1 (multidrug resistance protein 1) (human, UniProt P08183 1-1280)
Assay: cell-based or functional assay

Row | Binder | IC50 of vincristine on N6/ADR cells with antibody [pM]
1 | B1 | 2930
2 | B2 | 52.8
3 | B3 | 92.9
4 | B4 | 16.7
5 | B5 | 21.6
6 | B6 | 9.5
7 | B7 | 38.6
8 | B8 | 10.3
9 | B9 | 6.8
10 | B10 | 3.5
11 | B11 | 2830
12 | B12 | 13.8
13 | B13 | 62.2
14 | B14 | 6.2
15 | B15 | 19.2
16 | B16 | 32.3
17 | B17 | 29
18 | B18 | 29
19 | B19 | 29.9
